We go through one substance from US20240425867A1, “NUCLEIC ACID-BASED ASSEMBLY AND USES THEREOF” (Rheinische Friedrich-Wilhelms-Universität Bonn, priority 2016, published 2024).

Values joined by “and” are separate entries in the source; they are usually repeats but may differ in a detail not shown here. Identical values can stand only once.

Data set [1] is described as follows: Atomic force microscopy (AFM) size of nanoconstructs. The data set is classed as physicochemical. As to conditions: Gaussian fit of at least 50 nanoconstructs. The protocol: All AFM images of the trCLN3-L4 and HyApNc aggregates were taken by using a Nanowizard III AFM (JPK instruments, Berlin) in tapping mode. ACTA probes with silicon tips were used for imaging in dry mode in air. A volume of 3 μL (5 mM) of a solution of magnesium acetate (MgAc2) in water was deposited on a freshly cleaved mica surface layer and allowed to incubate for 3 minutes and afterwards the surface was rinsed with 2×10 μL of milli-Q water and dried under air pressure. For imaging a volume of 3 μL of the trCLN3-L4/HyApNc solutions in ultra pure water were spotted on the pre-treated mica surface and allowed to incubate for 1 min. After 1 min incubation on the mica surface, the excess sample solution was gently shaken off and the mica surface was blown dry with air pressure and mounted to the AFM microscope for immediate imaging. […]
In a first step. we synthesized the lipid-modified phosphoramidite 1 with a C12-lipid chain incorporated at the 5-position of the uridine base (FIGS. 2A-B). […] We evaluated the CMC of the trCLN3-L4nanoconstructs using Forster resonance energy transfer (FRET; Example 3; FIGS. 6A-C; Table 2) and fluorescence studies with pyrene-loaded trCLN3-L4 nanoconstructs (FIGS. 7A-B; Table 3). […] The trCLN3-L4 3 nanoconstructs have an average diameter of 21.2±1.5 nm (FIG. 8C, upper panel), consistent with the size of 25 nm measured by TEM.

Data set [2] can be described thus: Serum stability in PBS-buffered human blood serum (PAGE of 32P-labeled aptamer). Conditions: 10% PBS-buffered HBS, 37° C., 0 to 72 h. The data set is classed as in vitro ADME. As for the experimental part: Serum stabilities of trCLN3, its two point mutant non-binding variant trCLN3.mut and their corresponding lipid-functionalized derivatives trCLN3-L4 and trCLN3.mut-L4 were investigated in fetal calf serum (FCS) and human blood serum. For this purpose, the aptamer motifs were labeled at their 5′-end with ^32P to form radiolabeled oligonucleotides. The degradation tests of all the aptamer motifs were performed for 60-72 h at 37°° C. 6 pmol (12 μl of 0.5 μM) of the radio-labeled aptamer (5′-end-labeled with γ-^32P) was incubated in a volume of 300 μl freshly thawed PBS-buffered FCS or human blood serum (270 μl serum+30 μl 10×PBS). For each measurement, 10 μl of the samples were removed, mixed with 90 μl of gel loading buffer (80% formamide+5 mM EDTA+0.01% SDS) and subsequently stored at −20° C. Aliquots of samples were taken after indicated time intervals of 0, 0.3, 1.5, 3, 6, 24, 48, 60 and 72h respectively. The serum stability of the aptamer in FCS or in HBS at different time intervals were analyzed on a denaturing PAGE by loading 10 μl of each sample onto a 10% TAE-Urea gel and running the gels for 90 minutes at 350 V. Gels were wrapped in clingfilm and exposed to a phosphorimager screen in a closed cassette over a period of 12 h and finally the residual intact aptamer bands were analyzed by scanning the screen in a phosphorimage-scanner (FujiFilm FLA 3000). Intensities of the residual intact aptamer bands were calculated applying AIDA image analyzer software program. Serums half-lives of the selected aptamers were determined by using a half-life curve-fitting data analysis program (GraphPad Prism).

A short description of data set [3]: Critical micelle concentration via FRET (6-Fam/Atto647N-labeled motif 3). The data set is classed as physicochemical. Conditions: room temperature. The protocol: The critical micelle concentration (CMC) value of the trCLN3-L4 aggregates was determined by intermolecular Förster resonance energy transfer (FRET) experiments using a FRET pair of 6-Fam and Atto647N both attached to the 5′-end of the trCLN3-L4 motif 3. The FRET labels were attached at the 5′-end in immediate proximity to the lipid-modifications to ensure that intermolecular FRET effects report the formation of micellar nanoconstructs at a concentration above the critical micelle concentration.
In the FRET experiment, a series of nanoconstructs was self-assembled by mixing 6-Fam- and Atto647N-labeled motif 3 in 1:1 ratios in a concentration range between 0.035-15 μM (Table 2). […] The mixtures were transferred into a 384-well plate and the FRET effect was monitored at room temperature by using an excitation wave length of λex=480 nm and an emission wavelength of λem=669 nm using an EnSpire® Multimode Plate Reader (PerkinElmer).
The intensity signals were collected for both FRET channels at λem=669 nm for the acceptor channel and that of donor channel at λem=520 nm. […] The CMC value was determined from the intersection of the lower horizontal asymptote of the sigmoidal curve with the tangent at the inflection point corresponding to the minimum trCLN3-L4 concentration required for formation of stable micelles in aqueous medium. […]

In data set [1], “trCLN3-L4: trCLN3 aptamer with four C12-lipid-modified dU residues at the 5′-end; self-assembles into micellar nanoconstructs (TGGATGGTAGCTCGGTCGGGGTGGGTGGGTTGGCAAGTCT; four 5' C12-lipid-modified dU residues, chemistry not fully specified)” registered an average diameter of 21.2±1.5 nm. Also, the “serum half-life (t1/2)” value in data set [2] is “no significant degradation even up to 72 h”. Moreover, the “critical micelle concentration (CMC)” value in data set [3] (FRET, aqueous medium) is 300 nM and ~0.005 mg/ml. In data set [3] (both methods (FRET and pyrene fluorescence)), this substance returned a CMC values of 300 to 350 nM.
